From the supplement of paper PMC9732359
± gives the uncertainty stated by the source.

experiment: protein stability index of a GFP-peptide fusion (yeast GPS) (PSI 1-4); higher = more stable; sorted into four equal gates, so the index is relative within each strain; details: pdr5∆
In short: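 Tiled 17-residue peptides from yeast proteins were fused downstream of GFP on a plasmid that also expresses Cherry, and the pooled library was carried in yeast. Mid-log cultures grown in leucine-free medium were sorted into four equal gates by GFP/Cherry fluorescence ratio. Plasmids from each gate were PCR-amplified and Illumina-sequenced, and reads were assigned to strains by barcodes. Each peptide's protein stability index is the sum, over gates, of the gate's read frequency multiplied by its gate number.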

Row | Sequence | protein stability index
1 | ATEKKSSSPLAMSETLS [PRE8] | 2.77 ± 0.068
2 | ATEVTPQEPKHIQEEEE [RPC19] | 3.23 ± 0.09
3 | ATFTSIELTSYESIATY [RPN7] | 1.9 ± 0.04
4 | ATGKKSRGINKGHKFNN [RPL15A] | 2.69 ± 0.13
5 | ATIRETYEIICDQTKSV [RRP43] | 3 ± 0.065
6 | ATKEGVVLGVEKRATSP [PUP2] | 3.14 ± 0.087
7 | ATLQSNEPTQKDEEETE [DSN1] | 3.18 ± 0.12
8 | ATPIPEEVQQAQTEIKL [RPS5] | 2.89 ± 0.1
9 | ATSTNPAKSASARGSYL [RPL17A] | 2.59 ± 0.038
10 | AVAGLTADAEILINTAR [PRE9] | 3.02 ± 0.088
11 | AVEKTLALGCHFQDQKN [POP7] | 3.12 ± 0.11
12 | AVFIVPKILIREHERVI [SWP82] | 2.06 ± 0.097
13 | AVGNLGNAIEVTEDGSI [RPL22B] | 1.45 ± 0.098
14 | AVSAASVVSMSNDVLKP [SIR2] | 3.11 ± 0.064
15 | AVSIETALEHKVVNGNS [FAS2] | 1.37 ± 0.1
16 | AVYETLISRMIFIATQL [BRR2] | 1.55 ± 0.058
17 | AYFLIIVPVISTIENVL [COB] | 1.75 ± 0.045
18 | AYNKKSTISAREIQTAV [HTB1] | 3.03 ± 0.089
19 | AYVAIEQVKDDGTSTEK [RPN8] | 1.73 ± 0.13
20 | CAERVKIQQQQPGYADL [QCR6] | 2.99 ± 0.19
21 | CDDESGDNEYITLRTSG [MCD1] | 3.29 ± 0.099
22 | CDEHMGLSLAGLAPDAR [PRE5] | 3.08 ± 0.15

Row | Sequence | protein stability index
23 | CEIHPSMILGVAASIIP [RPB2] | 1.42 ± 0.1
24 | CESCSTILCTPTGGKAK [RPS27A] | 2.32 ± 0.046
25 | CGDSIICNTLNIAKDLK [SMC1] | 1.66 ± 0.067
26 | CGLMTVIAKLNHNQFEC [RPB2] | 2.35 ± 0.078
27 | CIFGDAFDVDRAKSCGV [RPL1A] | 2.75 ± 0.084
28 | CIIFMDEVDAIGGRRFS [RPT4] | 2.13 ± 0.075
29 | CKKKEMSQYQSTMKENK [YIL149C/MLP2] | 2.76 ± 0.073
30 | CLGIKDEEMLTSCTIPK [GAL11] | 2.98 ± 0.068
31 | CLKRGWGHPTRMLLNLC [BRR2] | 3.14 ± 0.14
32 | CLLSIPKSTKGKILTIK [YML103C/NUP188] | 1.87 ± 0.062
33 | CNDEDKDLETLYNKIWT [ECM29] | 3.06 ± 0.065
34 | CNERVPLSVATELMNRS [SRP72] | 2.52 ± 0.044
35 | CPYCYKKRREYFPEGYN [SIR2] | 2.41 ± 0.16
36 | CQILDGELDVLQIESVT [PRP8] | 2.78 ± 0.062
37 | CRNINRKHRNAQFAGRA [DIS3] | 2.78 ± 0.071
38 | CRVDFKNPHDIIEGINA [RPL12A] | 2.45 ± 0.072
39 | CSKSIPKDKAIKRMAIR [RPS26A] | 2.96 ± 0.073
40 | CSNNKNSIKNVPPILII [SSN2] | 2.28 ± 0.098
41 | CSSATVPKHMLDKLDEI [AAR2] | 3.05 ± 0.088
42 | CVHMVYEYAEHDLLQII [SSN3] | 2.21 ± 0.089
43 | CYAPRPSAGPHKLRESL [RPS4A] | 3.12 ± 0.091
44 | CYPQFAERDSQGGFYKQ [UBP6] | 3.28 ± 0.064

Row | Sequence | protein stability index
45 | DAAAEEEKEEEAAEESD [RPP1B] | 3.25 ± 0.13
46 | DAAEEEKEEEAKEESDD [RPP2B] | 3.22 ± 0.14
47 | DAGKIDKHLYHVLYKES [RPL19A] | 3.12 ± 0.2
48 | DAGVTFNKEQLNKFKKA [ECM29] | 2.13 ± 0.11
49 | DAIAVTKGHGFEGVTHR [RPL3] | 3.19 ± 0.11
50 | DAKTSYPNEVLKFNHGN [REC8] | 2.95 ± 0.072
51 | DALEMQWRYLYDTQLKV [ARP7] | 1.55 ± 0.046
52 | DANGVSLFELIVPIFQL [YJL039C/NUP192] | 2.08 ± 0.049
53 | DANLLEEGETSRPLKKV [SWI3] | 3.45 ± 0.16
54 | DASTPLRSTENGIVDQV [RPB2] | 3.33 ± 0.1
55 | DAVEGVSECIILGQTMS [RPO31] | 1.46 ± 0.077
56 | DAYYDLELRNSVMDDIL [PRP8] | 3.04 ± 0.044
57 | DDDDYGDEEDPNEEAAF [RPC31] | 3.38 ± 0.28
58 | DDDDYNAEKYFNNGDDD [RPC31] | 3.13 ± 0.16
59 | DDEHNPTIVGGLYYQRP [AAR2] | 2.56 ± 0.039
60 | DDIYDISLLKNRRKQSF [RPN4] | 3.08 ± 0.12
61 | DDKDCTIKISTNDDSIK [RGR1] | 3.15 ± 0.067
62 | DDLIHFTLKQWNRLTIS [COR1] | 1.34 ± 0.041
63 | DDMDIDEVNDRSDISDS [PCI8] | 3.1 ± 0.1
64 | DDPFMTKSGATTSEKQE [GAL11] | 3.26 ± 0.13
65 | DDTAANNGDKDHLKLVS [YIL149C/MLP2] | 3.35 ± 0.11
66 | DDVISNAGTNDNSFNEL [MCD1] | 3.37 ± 0.12

Row | Sequence | protein stability index
67 | DDYSNEDNEMLEDLFSY [YJR042W/NUP85] | 1.94 ± 0.15
68 | DEDIITIFKYLTDKDAF [CDC53] | 3.15 ± 0.11
69 | DEGHVLKLENLHVVSKS [SIN4] | 2.65 ± 0.16
70 | DEKEKQLAVANEIIRSL [SIR4] | 2.25 ± 0.047
71 | DEKLKTEKLKNDKSEVL [SRB8] | 3.74 ± 0.21
72 | DELCKLVTCEGSEEKAF [SRP54] | 2.3 ± 0.18
73 | DELERILKELSNLETLY [RPB4] | 3.33 ± 0.082
74 | DELILEAKERYTDRDQD [NNF1] | 3.68 ± 0.27
75 | DELSSKELVECHLYSQR [NNF1] | 2.33 ± 0.052
76 | DESDTISFRSNLLKNFI [SNF6] | 2.55 ± 0.12
77 | DESLIRELYKYVRKHDP [PRP28] | 3.48 ± 0.16
78 | DESSGTSRIDEEKPGLI [SMC4] | 3.12 ± 0.047
79 | DEVDAIGGRRFSEGTSA [RPT4] | 2.67 ± 0.083
80 | DFDNIEFKKIPRVKGFK [SEC65] | 3.11 ± 0.13
81 | DFNEIVQYLSGAHGNSD [POP3] | 1.22 ± 0.14
82 | DGGYNAQLAKAKTELNE [SMC2] | 1.94 ± 0.058
83 | DGKKHSVFYTILRDYGP [RPO31] | 2.95 ± 0.067
84 | DGMYSESKLSLETLFNR [FAS2] | 3.25 ± 0.09
85 | DGRSFDQFRDVEITFGK [RRP45] | 3.3 ± 0.058
86 | DHINGSGKRKPTKAAQR [GAL11] | 2.81 ± 0.094
87 | DIDAVNGAVGKREGKTR [ISW2] | 3.47 ± 0.11
88 | DIETQLCSMLQEASQVT [MED11] | 2.73 ± 0.11

Row | Sequence | protein stability index
89 | DIGKEMSLRHFGHLMHY [RPN1] | 1.25 ± 0.041
90 | DIIVAIKIFELKLPADA [IRR1] | 1.21 ± 0.071
91 | DINQAKDFIENVNNRFD [BRN1] | 3.23 ± 0.086
92 | DISLKADLERFFLSIYF [YJL039C/NUP192] | 2.79 ± 0.092
93 | DITGIRDVSDDVFDTLA [GRR1] | 3.04 ± 0.07
94 | DKDSEELDSKTRKILEI [MED4] | 2.65 ± 0.091
95 | DKFFNEVNKSELYLTAE [SIR3] | 3.55 ± 0.13
96 | DKIPLNYAMTRNILHNT [SRB5] | 2.34 ± 0.057
97 | DKLKVYKQAMNETSEQL [SNF5] | 3.39 ± 0.15
98 | DKLTRVHDKIWCCRSGS [PRE3] | 2.68 ± 0.068
99 | DKNELQQMIITRLKSLL [SIR3] | 2.04 ± 0.05
100 | DKRIVISIDSWPTTHKY [DIS3] | 1.52 ± 0.11
101 | DKVTSQAVNNLIKTLST [RPP1] | 2.89 ± 0.078
102 | DLALKMGVPIYGIVAMA [FAS2] | 1.17 ± 0.093
103 | DLEKLLEMSTEDFVKLA [RPS15] | 3.13 ± 0.12
104 | DLLRSQLTSLEKDCSLR [YIL149C/MLP2] | 3.05 ± 0.063
105 | DLTMGQVGERIKQTFKN [RPO21] | 2.81 ± 0.19
106 | DLTRVYKAISAQADKQD [FAS2] | 1.72 ± 0.049
